Patent US20220396794, “[…] AGAINST TRANSFERRIN RECEPTOR (TfR)” (APTERNA LIMITED, published 2022)

Assays:
[1] = biological target: T1, Transferrin receptor 1 (hTfR/hTFRC) extracellular domain (Homo sapiens, UniProt P02786 SEQ:89-760); assay: SPR; not measurable; conditions: tags: N-terminal His6; expressed in HEK293; Sino Biological 11020-H07H; chain copies: 2 (inferred); label: biotin (SPR) or Cy3 (cells)
Method: (§1) Surface plasmon resonance-based biosensor assay. The Biacore T100 (GE Healthcare, Uppsala, Sweden) was used to monitor label-free interactions of truncated TR14-hTfR1 in real time. The biotinylated aptamer was coupled to a streptavidin-coated Biacore chip (SensorChip SA, BR-1003-98, General Electric Company) by an injection in binding buffer at a concentration of 25 μg/mL (30 mM Tris-HCl, pH 7.5; 150 mM NaCl; 5 mM MgCl₂) at 10 uL/min. The RNA was refolded by heating to 65° C., followed by cooling to 37° C., before immobilization. To measure binding kinetics, five concentrations of purified hTfR1 protein were injected at a flow rate of 10 uL/min. After binding, the surface was regenerated by injecting 50 mM NaOH at a flow rate of 15 μL/min for 20 s. Data from the control surface were subtracted. BIAevaluation software (GE Healthcare) was used for analysis. The binding data was fit to a 1:1 binding with a mass transfer model to calculate kinetics parameters as previously described (Hernandez et al, 2009; Soontornworajit et al, 2011)

[2] = biological target: T1, Transferrin receptor 1 (hTfR/hTFRC) …; assay: SPR; 30 mM Tris pH 7.5, 150 mM NaCl, 5 mM MgCl2; aptamer immobilised; conditions: tags: N-terminal His6; expressed in HEK293; Sino Biological 11020-H07H; chain copies: 2 (inferred); label: biotin (SPR) or Cy3 (cells)
Method: as §1

T1 sequence (P02786 89-760): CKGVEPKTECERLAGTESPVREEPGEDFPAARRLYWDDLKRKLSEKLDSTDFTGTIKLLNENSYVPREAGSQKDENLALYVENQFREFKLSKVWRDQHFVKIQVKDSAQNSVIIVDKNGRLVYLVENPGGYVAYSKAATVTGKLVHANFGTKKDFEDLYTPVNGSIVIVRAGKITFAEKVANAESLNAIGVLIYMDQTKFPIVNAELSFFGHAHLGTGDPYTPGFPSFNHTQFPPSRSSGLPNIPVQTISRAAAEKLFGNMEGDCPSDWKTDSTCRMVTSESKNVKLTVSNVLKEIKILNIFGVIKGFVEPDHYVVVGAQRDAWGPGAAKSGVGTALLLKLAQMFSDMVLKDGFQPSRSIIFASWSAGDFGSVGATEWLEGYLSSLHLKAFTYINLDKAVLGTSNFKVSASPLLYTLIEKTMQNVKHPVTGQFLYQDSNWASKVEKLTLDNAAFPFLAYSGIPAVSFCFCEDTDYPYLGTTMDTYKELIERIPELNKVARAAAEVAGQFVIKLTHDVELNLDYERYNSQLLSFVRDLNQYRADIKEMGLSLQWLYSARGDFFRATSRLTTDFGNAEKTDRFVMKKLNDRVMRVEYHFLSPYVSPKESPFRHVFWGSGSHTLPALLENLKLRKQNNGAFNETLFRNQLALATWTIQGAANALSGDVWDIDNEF

Binder: GCUCAAUGCGUUCACGUUUAUUCACAUUUUUGAAUUGAGC (ssRNA, 2'-F pyrimidines (rule of the parent selection)) [TR14 ST1-1 (40-nt)]
- binding result [1]: no binding

Binder: AAUGCGUUCACGUUUAUUCACAUUUUUGAAUU (ssRNA, 2'-F pyrimidines (rule of the parent selection)) [TR14 ST1-2 (32-nt)]
- binding result [1]: no binding

Binder: UUUAUUCACAUUUUUGAAUUGA (ssRNA, 2'-F pyrimidines (rule of the parent selection)) [TR14 ST1-3 (22-nt)]
- Kd [2]: 22 pM

Binder: GGGGCUCAAUGCGUUCACGUUUAUUCACAUUUUUGAAUUGAGCAUG (ssRNA, 2'-F pyrimidines (rule of the parent selection)) [TR14 S1 (46-nt)]
- Kd [2]: 1460 pM
